Reference: US20260166139A1 (AKESO BIOPHARMA, published 2026)
Substitutions are numbered along the chain they refer to. Values belong to the binder of their own block, whether it stands above or below them.

Assays:
[1] = molecular target: T1, CTLA4-mFc; test: competitive ELISA, competitor B7-2
T1 construct: also called CTLA4ECD-mFc fusion protein; CTLA4 antigen
Method: (§1) After incubation at 37° C. for 40 minutes, the enzyme conjugated secondary antibody was added. After incubation at 37° C. for 30 minutes, the absorbance at 450 nm was detected on an ELISA plate reader.
Target sequence in this assay (chain, as listed by the source limits assumed): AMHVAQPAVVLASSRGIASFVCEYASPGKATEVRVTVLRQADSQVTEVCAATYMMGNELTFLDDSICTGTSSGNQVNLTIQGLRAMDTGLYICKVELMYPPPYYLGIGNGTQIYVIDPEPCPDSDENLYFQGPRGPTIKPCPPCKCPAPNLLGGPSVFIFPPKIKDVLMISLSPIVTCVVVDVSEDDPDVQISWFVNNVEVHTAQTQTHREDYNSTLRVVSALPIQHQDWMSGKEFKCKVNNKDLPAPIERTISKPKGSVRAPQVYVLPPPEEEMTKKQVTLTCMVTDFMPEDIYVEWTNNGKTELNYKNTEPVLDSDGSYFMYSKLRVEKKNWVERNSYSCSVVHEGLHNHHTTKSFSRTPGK

[2] = molecular target: T1, CTLA4-mFc; test: competitive ELISA, competitor B7-1
Method: as §1
Target sequence in this assay (chain, as listed by the source limits assumed): as above

[3] = molecular target: T2, CTLA4 antigen (NCBI Gene ID: 1493) obtained by TEV protease cleavage of CTLA4-mFc (Homo sapiens (Human), UniProt P16410 37-161); test: BLI (Fortebio), antibody on AR2G sensor, CTLA4 in solution
T2 construct: also called the antigen CTLA4
T2 sequence: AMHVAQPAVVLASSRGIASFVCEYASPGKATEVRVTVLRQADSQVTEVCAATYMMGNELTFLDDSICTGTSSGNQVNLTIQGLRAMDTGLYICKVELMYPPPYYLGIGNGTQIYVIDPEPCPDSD
Method: 2. […] After equilibration in PBST, the CTLA4 antigen was added for binding. […] Dissociation occurred in PBST.

[4] = molecular target: T3, CTLA4 antigen on the surface of 293F-CTLA4 host cells (UniProt P16410 36-223, limits assumed); test: flow cytometry, 293F-CTLA4 cells; antibody 0.001 nM
T3 construct: whole, on cells
T3 sequence (looked up): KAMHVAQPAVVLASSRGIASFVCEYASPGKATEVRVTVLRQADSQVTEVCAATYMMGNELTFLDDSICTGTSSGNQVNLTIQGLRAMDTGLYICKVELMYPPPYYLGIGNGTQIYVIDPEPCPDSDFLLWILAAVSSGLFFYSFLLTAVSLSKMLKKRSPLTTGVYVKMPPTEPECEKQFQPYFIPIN
Method: (§2) After addition of 300 μL PBS, the fluorescent signal was detected using the FITC channel on the flow cytometer.

[5] = molecular target: T3, CTLA4 antigen on the surface of …; test: flow cytometry, 293F-CTLA4 cells; antibody 10 nM
Method: as §2

[6] = molecular target: T3, CTLA4 antigen on the surface of …; test: flow cytometry, 293F-CTLA4 cells; antibody 5 nM
Method: as §2

[7] = molecular target: T3, CTLA4 antigen on the surface of …; test: flow cytometry, 293F-CTLA4 cells; antibody 25 nM
Method: as §2

[8] = molecular target: T3, CTLA4 antigen on the surface of …; test: flow cytometry, 293F-CTLA4 cells
Method: as §2

[9] = molecular target: T3, CTLA4 antigen on the surface of …; test: flow cytometry, 293F-CTLA4 cells; antibody 1 nM
Method: as §2

[10] = molecular target: T3, CTLA4 antigen on the surface of …; test: flow cytometry, 293F-CTLA4 cells; antibody 0.01 nM
Method: as §2

[11] = molecular target: T3, CTLA4 antigen on the surface of …; test: flow cytometry, 293F-CTLA4 cells; antibody 0.1 nM
Method: as §2

[12] = molecular target: T1, CTLA4-mFc; test: competitive ELISA, competitor B7-1; control run with 8D2H2L2
[13] = molecular target: T1, CTLA4-mFc; test: competitive ELISA, competitor B7-2; control run with 8D2H2L17
[14] = molecular target: T1, CTLA4-mFc; test: competitive ELISA, competitor B7-2; control run with 8D2(Re)
[15] = molecular target: T1, CTLA4-mFc; test: competitive ELISA, competitor B7-1; control run with 8D2H2L17
[16] = molecular target: T1, CTLA4-mFc; test: competitive ELISA, competitor B7-2; control run with 8D2H2L2
[17] = molecular target: T1, CTLA4-mFc; test: competitive ELISA, competitor B7-2; control run with 8D2H2L15
[18] = molecular target: T1, CTLA4-mFc; test: competitive ELISA, CTLA4-mFc coated, competitor B7/2-His; antibody 1 µg/ml diluted 1:3
Method: as §1

[19] = molecular target: T1, CTLA4-mFc; test: competitive ELISA, competitor B7-1; control run with 8D2H3L3
[20] = molecular target: T1, CTLA4-mFc; test: competitive ELISA, competitor B7-1; control run with 8D2H2L15
[21] = molecular target: T1, CTLA4-mFc; test: competitive ELISA, competitor B7-2; control run with 8D2
[22] = molecular target: T1, CTLA4-mFc; test: competitive ELISA, competitor B7-2; control run with 8D2H3L3
[23] = molecular target: T1, CTLA4-mFc; test: competitive ELISA, CTLA4-mFc coated, competitor B7/2-His; antibody 1 µg/ml
Method: as §1

[24] = molecular target: T1, CTLA4-mFc; test: competitive ELISA, competitor B7-2; control run with 8D2H1L1
[25] = molecular target: T1, CTLA4-mFc; test: competitive ELISA, competitor B7-1; control run with 8D2H1L1
[26] = molecular target: T4, human CTLA4 (human, UniProt P16410 36-161, limits assumed); test: ELISA on coated CTLA4, source Human
T4 construct: also called human CTLA4 antigen; CTLA4 protein
T4 sequence (looked up): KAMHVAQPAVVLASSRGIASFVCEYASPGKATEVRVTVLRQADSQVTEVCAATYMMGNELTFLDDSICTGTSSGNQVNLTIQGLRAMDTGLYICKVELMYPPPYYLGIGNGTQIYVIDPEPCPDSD
Method: (§3) The ELISA plate was coated with CTLA4 at 4° C. over night. […] The enzyme conjugated secondary antibody was added for incubation for 30 min. Then, the absorbance at 450 nm was determined on an ELISA plate reader.

[27] = molecular target: T1, CTLA4-mFc; test: competitive ELISA, competitor B7-1; third of three tests
Method: as §1

[28] = molecular target: T1, CTLA4-mFc; test: competitive ELISA, competitor B7-2; first of three tests
Method: as §1

[29] = molecular target: T1, CTLA4-mFc; test: competitive ELISA, competitor B7-1; first of three tests; competitor B7-1; first of three tests, the run with controls 10D1 5.15 nM and 11.2.1 1.073 nM
Method: as §1

[30] = molecular target: T1, CTLA4-mFc; test: competitive ELISA, competitor B7-2; second of three tests
Method: as §1

[31] = molecular target: T1, CTLA4-mFc; test: competitive ELISA, competitor B7-1; second of three tests
Method: as §1

[32] = molecular target: T1, CTLA4-mFc; test: competitive ELISA, competitor B7-2; third of three tests
Method: as §1

[33] = molecular target: T5, monkey CTLA4-hFc (monkey); test: ELISA on coated CTLA4, source Monkey
T5 construct: also called monkey CTLA4 antigen
Method: as §3

B1: 8D2 recombinant antibody, 8D2(Re) (antibody, V domains shown)
VH: EVKLDETGGGLVQPGRPMKLSCVASGFTFSDNWMNWVRQSPEKGLEWLAQIRNKPYNYETYYSDSVKGRFTISRDDSKSSVYLQMNNLRGEDMGIYYCTAQFAYWGQGTLVTVSA
VL: DIQMTQSPASLSASVGETVTITCGTSENIYGGLNWYQRKQGKSPQLLIFGATNLADGMSSRFSGSGSGRQYSLKISSLHPDDVATYYCQNVLRSPFTFGSGTKLEI
EC50 [1]: 0.153 nM | EC50 [2]: 0.514 nM

B4: control antibody 10D1 (antibody, V domains shown)
VH: QVQLVESGGGVVQPGRSLRLSCAASGFTFSSYTMHWVRQAPGKGLEWVTFISYDGNNKYYADSVKGRFTISRDNSKNTLYLQMNSLRAEDTAIYYCARTGWLGPFDYWGQGTLVTVSS
VL: not shown
EC50 [12]: 5.15 nM | EC50 [13]: 0.629 nM | EC50 [14]: 0.464 nM | EC50 [15]: 4.59 nM | EC50 [16]: 2.06 nM | EC50 [17]: 0.629 nM | absorbance at 450 nm [18]: 0.07 | EC50 [19]: 5.15 nM | EC50 [20]: 4.59 nM | EC50 [21]: 0.464 nM | EC50 [22]: 2.06 nM | absorbance at 450 nm [23]: 0.05 | EC50 [24]: 0.464 nM | EC50 [25]: 1.91 nM

B6: humanized antibody 8D2H2L2 (antibody, V domains shown)
VH: EVQLVESGGGLVQPGGSMRLSCAASGFTFSDNWMNWVRQAPGKGLEWLAQIRNKPYNYETYYSASVKGRFTISRDDSKNSVYLQMNSLKTEDTGVYYCTAQFAYWGQGTLVTVSS
VL: DIQMTQSPSSLSASVGDRVTITCRTSENIYGGLNWYQRKPGKSPKLLIYGATNLASGVSSRFSGSGSGTDYTLTISSLQPEDVATYYCQNVLRSPFTFGSGTKLEIK
notes: also called 8D2H2L2(20150327); 8D2H2L2(20140422)
EC50 [27]: 3.12 nM | EC50 [28]: 1.64 nM | EC50 [29]: 5.93 nM | EC50 [30]: 0.368 nM | EC50 [31]: 2.97 nM | absorbance at 450 nm [23]: 0.05 | EC50 [32]: 0.301 nM

B10: humanized antibody 8D2H1L1 (antibody, V domains shown)
VH: B6 VH with A64D
VL: B6 VL with P40Q, V58M, T74K, Q79H, E81D
EC50 [1]: 0.178 nM | EC50 [2]: 2.48 nM

Now from value to binder:

Kd [3]: 0.166 nM | koff [3]: 2.36e-05 s⁻¹ | kon [3]: 142000 M⁻¹ s⁻¹ | fluorescence intensity [4]: 7.6 | fluorescence intensity [5]: 639 | fluorescence intensity [6]: 183 | fluorescence intensity [7]: 722 | EC50 [8]: 3.84 nM | fluorescence intensity [9]: 25.5 | fluorescence intensity [10]: 7.7 | fluorescence intensity [11]: 9.1
B2: monoclonal antibody 8D2 (antibody, V domains shown)
VH: B1 VH
VL: B1 VL
notes: Murine antibody purified from hybridoma supernatant; also called mAb 8D2; antibody secreted by the CTLA4-8D2 hybridoma cell line LT001

fluorescence intensity [4]: 24.6 | fluorescence intensity [5]: 898 | fluorescence intensity [6]: 714 | fluorescence intensity [7]: 873 | EC50 [8]: 1.38 nM | fluorescence intensity [9]: 321 | fluorescence intensity [10]: 24.7 | fluorescence intensity [11]: 66.7
B3: 8D2 recombinant antibody, 8D2(Re) (antibody, V domains shown)
VH: B1 VH
VL: B1 VL

Kd [3]: 1.02 nM | koff [3]: 0.000465 s⁻¹ | kon [3]: 454000 M⁻¹ s⁻¹ | EC50 [26]: 0.042 nM
B5: humanized antibody 8D2H2L15 (antibody, V domains shown)
VH: B6 VH
VL: B6 VL with R93S, S94R, P95H, F96P, T97G

EC50 [1]: 0.167 nM | EC50 [2]: 2.14 nM
B7: humanized antibody 8D2H3L3 (antibody, V domains shown)
VH: B6 VH with M18L, L48V, Y61E, S63A, V81A, G94A
VL: B6 VL with T25A, R38Q, S43A, N53S, S59P, V83F

EC50 [33]: 0.385 nM | Kd [3]: 1.05 nM | koff [3]: 0.000327 s⁻¹ | kon [3]: 312000 M⁻¹ s⁻¹ | fluorescence intensity [4]: 10.8 | fluorescence intensity [5]: 1080 | EC50 [26]: 0.129 nM | fluorescence intensity [6]: 971 | fluorescence intensity [7]: 1090 | EC50 [8]: 4.54 nM | fluorescence intensity [9]: 623 | fluorescence intensity [10]: 25.1 | fluorescence intensity [11]: 108
B8: humanized antibody 8D2H3L3 (antibody, V domains shown)
VH: B6 VH with M18L, L48V, Y61E, S63A, V81A, G94A
VL: B6 VL with T25A, R38Q, S43A, N53S, S59P, V83F

Kd [3]: 0.766 nM | koff [3]: 0.000352 s⁻¹ | kon [3]: 459000 M⁻¹ s⁻¹ | EC50 [26]: 0.047 nM
B9: humanized antibody 8D2H2L17 (antibody, V domains shown)
VH: B6 VH
VL: B6 VL with R93S, P95R, F96P, T97G
